B1: HMGB1: Recombinant full length human HMGB1, GST fusion system, SEQ ID NO:18; recombinant rat HMGB1 used in some experiments (protein)
chain: MGKGDPKKPTGKMSSYAFFVQTCREEHKKKHPDASVNFSEFSKKCSERWKTMSAKEKGKFEDMAKADKARYEREMKTYIPPKGETKKKFKDPNAPKRLPSAFFLFCSEYRPKIKGEHPGLSIGDVAKKLGEMWNNTAADDKQPYEKKAAKLKEKYEKDIAAYRAKGKPDAAKKGVVKAEKSKKKKEEEEDEEDEEDEEEEEDEEDEEDEEEDDDDE
modifications: GST fusion
notes: recombinant rat HMGB1 used in some experiments
B2: B box: Human HMGB1 mutant containing only the B box, SEQ ID NO:20 (protein)
chain: FKDPNAPKRLPSAFFLFCSEYRPKIKGEHPGLSIGDVAKKLGEMWNNTAADDKQPYEKKAAKLKEKYEKDIAAY
B3: A box: Human HMGB1 mutant containing only the A box, SEQ ID NO:21 (A box SEQ ID NO:22) (protein)
chain: MGKGDPKKPTGKMSSYAFFVQTCREEHKKKHPDASVNFSEFSKKCSERWKTMSAKEKGKFEDMAKADKARYEREMKTYIPPKGET

Test system: RAW 264.7 cells
Test: TNF release from RAW 264.7 cells (L929 cytotoxicity bioassay)
Format: cell-based, murine
Settings: for TNF release: 1 μg/ml protein, RAW 264.7 cells
Protocol: Murine macrophage-like RAW 264.7 cells (American Type Culture Collection, Rockville, Md.) were cultured in RPMI 1640 medium (Life Technologies, Grand Island N.Y.) supplemented with 10% fetal bovine serum (Gemini, Catabasas, Calif.), penicillin and streptomycin (Life Technologies) and were used at 90% confluence in serum-free Opti-MEM I medium (Life Technologies, Grand Island, N.Y.). […] Polymyxin B was not used in experiments of synthetic peptide studies.
TNF release was measured by a standard murine fibroblast L929 (ATCC, American Type Culture Collection, Rockville, Md.) cytotoxicity bioassay (Bianchi et al., Journal of Experimental Medicine 183:927-936, 1996) with the minimum detectable concentration of 30 pg/ml. Recombinant mouse TNF was obtained from R&D system Inc., (Minneapolis, Minn.). Murine fibroblast L929 cells (ATCC) were cultured in DMEM (Life Technologies, Grand Island, N.Y.) supplemented with 10% fetal bovine serum (Gemini, Catabasas, Calif.), penicillin (50 units/ml) and streptomycin (50 μg/ml) (Life Technologies) in a humidified incubator with 5% CO2.
The effect of the mutants on TNF release from Murine macrophage-like RAW 264.7 cells (ATCC) was carried out as follows. RAW 264.7 cells were cultured in RPMI 1640 medium (Life Technologies, Grand Island N.Y.) supplemented with 10% fetal bovine serum (Gemini, Catabasas, Calif.), penicillin and streptomycin (Life Technologies). Polymyxin (Sigma, St. Louis, Mo.) was added at 100 units/ml to suppress the activity of any contaminating LPS. Cells were incubated with 1 μg/ml of full length (wild-type) HMGB1 and each HMGB1 mutant protein in Opti-MEM I medium for 8 hours, and conditioned supernatants (containing TNF which had been released from the cells) were collected and TNF released from the cells was measured by a standard murine fibroblast L929 (ATCC) cytotoxicity bioassay (Bianchi et al., supra) with the minimum detectable concentration of 30 pg/ml. Recombinant mouse TNF was obtained from R & D Systems Inc., (Minneapolis, Minn.) and used as control in these experiments. Data in FIG. 1 are all presented as mean+SEM unless otherwise indicated. (N=6-10).
To further examine the effect of HMGB1 B box on cytokine production, varying amounts of HMGB1 B box were evaluated for the effects on TNF, IL-1 B, and IL-6 production in murine macrophage-like RAW 264.7 cells. Conditioned media were harvested and measured for TNF, IL-1β and IL-6 levels. TNF levels were measured as described herein, and IL-1β and IL-6 levels were measured using the mouse IL-1β and IL-6 enzyme-linked immunosorbent assay (ELISA) kits (R&D System Inc., Minneapolis, Minn.) and N>5 for all experiments.
The kinetics of B box-induced TNF release was also examined. TNF release and TNF mRNA expression was measured in RAW 264.7 cells induced by B box polypeptide or GST tag polypeptide only used as a control (vector) (10 μg/ml) for 0 to 48 hours. Supernatants were analyzed for TNF protein levels by an L929 cytotoxicity assay (N=3-5) as described herein. For mRNA measurement, cells were plated in 100 mm plate and treated in Opti-MEM I medium containing B box polypeptide or the vector alone for 0, 4, 8, or 24 hours, as indicated in FIG. 2D. The vector only sample was assayed at the 4 hour time point. Cells were scraped off the plate and total RNA was isolated by RNAzol B method in accordance with the manufacturer's instructions (Tel-Test “B”, Inc., Friendswood, Tex.). TNF (287 bp) was measured by RNase protection assay (Ambion, Austin, Tex.). Equal loading and the integrity of RNA was verified by ethidium bromide staining of the RNA sample on agarose-formaldehyde gel. […] TNF mRNA expression was maximal at 4 hours and decreased at 8 and 24 hours. […] A similar study was carried out measuring TNF protein released from RAW 264.7 cells 0, 4, 8, 24, 32 or 48 hours after administration of B box or vector only (GST tag), using the L929 cytotoxicity assay described herein. […] Data are representative of three separate experiments. […]

Row | Molecule | TNF release (8 hours) | TNF protein expression compared to medium only (10 μg/ml, 0-48 hours) | time of maximum TNF protein release (10 μg/ml, 0-48 hours) | TNF release, dose dependence (B box 0-10 μg/ml, 8 hours)
1 | B1 | significantly stimulated TNF release | – | – | –
2 | B2 | potent activator of monocyte TNF release | stimulated TNF protein expression | ≤ 8 h | increased with increased amounts of B box
3 | B3 | only weakly activated TNF release | – | – | –
